Data set [1] relates to calcitonin oligomer. Conditions: cited from earlier work.
For data set [2] the following is noted: 4 °C, 100 mM DCl (pH 1); cited from earlier work.
The conditions of data set [3]: cited from earlier work.
Data set [4] in a line: Pyrene fluorescence II/IIII ratio assay for micelle-like oligomer formation. The format is physicochemical. Conditions: pH 7.3, 20 mM phosphate buffer, 50 mM NaCl, 1 μM pyrene, 25 °C.

Read-outs that look alike come from different tables or passages of the source. Where no end group is shown, it is not given here.

As for `O=C(O[C@@H]1Cc2c(O)cc(O)cc2O[C@@H]1c1cc(O)c(O)c(O)c1)c1cc(O)c(O)c(O)c1` [EGCG], the “effect on formation of the calcitonin oligomer” value in data set [1] is on record as “completely abolish”.

Take “Aβ1–40: amyloid-beta peptide 1–40, linked to Alzheimer's disease”: in data set [2], the “length of spherocylindrical micelle structures (SANS)” value is recorded as 11 nm and the “radius of spherocylindrical micelle structures (SANS)” value is on record as 2.4 nm. Also, the critical concentration in data set [3] (10 mM phosphate buffer, pH 7.3) is 8 µM. Further, the critical concentration in data set [3] (0.1 M Tris, pH 7.4 20 °C) was 25 µM. Also, the “critical concentration for micelle-like oligomers” value in data set [3] (pyrene and surface tension studies) is 17 µM.

As to “hIAPP1–19: N-terminal 1–19 fragment of hIAPP, significantly less amyloidogenic than the full-length peptide (KCNTATCATQRLANFLVHS; ends and bridges not checked; cysteine pairing not given here; UniProt P10997 34-52, looked up, fragment)”, the “micelle-like oligomer formation over the concentration range tested (pyrene II/IIII)” value in data set [4] is “did not form oligomers”.

(Values after publication PMC11444341 (The journal of physical chemistry. B, 2015).)
